Molecular target: T1, MBP-SOA(1-331), myb+BTB (Anopheles gambiae, UniProt Q7Q6N8 1-331)
T1 sequence: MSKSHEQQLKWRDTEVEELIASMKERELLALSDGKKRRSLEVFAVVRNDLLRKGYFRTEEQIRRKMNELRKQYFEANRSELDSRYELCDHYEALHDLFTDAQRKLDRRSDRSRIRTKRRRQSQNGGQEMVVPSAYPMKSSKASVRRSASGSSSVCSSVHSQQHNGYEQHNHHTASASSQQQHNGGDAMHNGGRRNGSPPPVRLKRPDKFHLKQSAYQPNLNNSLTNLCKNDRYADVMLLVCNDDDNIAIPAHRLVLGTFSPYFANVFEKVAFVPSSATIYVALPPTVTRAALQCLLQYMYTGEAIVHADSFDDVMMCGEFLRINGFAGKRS
Assay: fluorescence polarization; FP: 10 mM Na-HEPES pH 7.4, 150 mM NaCl, 1 mM TCEP, 0.1 g/l BSA, 5% glycerol, 0.05% Triton X-100, 5 nM DNA, 20 C; EMSA: 20 mM HEPES-KOH pH 7.5, 100 mM KCl, 0.05% NP-40, room temperature
Settings: protein: recombinant; tags: N-terminal His6-MBP; label: Cy5 on one strand; blunt

B1: CA10 dsDNA 20mer (dsDNA)
DNA 1: CACACACACACACACACACA
DNA 2: TGTGTGTGTGTGTGTGTGTG
- Kd: 40 nM
